The nature of this data set: label from the status in PepcDB records.
Consider “SNIRLIATDMDGTLTQQGRFSAALLQTLENLKAAGLPILIVTGRSAGWVSGISSLMPIAGAIGENGGLFYPADSEHPLLLTPIADLTGHRQNLALVFQKLKQKFPQIQESGDNRFRITDWTFDVAGLTLAELQLIGNLCQDMGWGFTYSNVQCHIKPQGQEKAIALLQVLQKYFPDYSPTQVVTVGDSPNDESLFNQRYFPLSVGVANVLKYAHQLQHQPSYVTTTAEGEGFCELCSYIL”, for which the protein production entry is given as “failed”.

“SNPNDLPDFPEHEYAATQQVGEGVINGDLYLTSASGAIQKGTNTKVALEPATSYMKAYYAKFGNLDAAKRDPDVQPPVLDPRRATYVREATTDQNGRFDFDHIPNGTYYISSELTWSAQSDGKTITEGGTVTKLVTVSGSQPQKVLLTR”: the protein production entry is listed as “not failed”.

Consider “SNRQVQLMARQQRLKAIEDRLEKFYIPLIKAFSSYVYTAQTEDEIETIITCRRYLAGNNLLRVLPMHFKFKADKIAGSANWTFYAKEDFEQWKEALDVLWEEFLEVLKEYYTLSGTEISLPEKPDWLIGYK”, for which the protein production result was “not failed”.

For “SNTPSAEADWSPGLELHPDYKTWGPEQVCSFLRRGGFEEPVLLKNIRENEITGALLPCLDESRFENLGVSSLGERKKLLSYIQRLVQIHVDTMKVI”, the protein production entry is “not failed”.

In the case of “SPSKVQELSVYEINELDRHSPKILKNAFSLMFGLGDLVPFTNKLYTGDLKKRVGITAGLCVVIEHVPEKKGERFEATYSFYFGDYGHLSVQGPYLTYEDSFLAITGGAGIFEGAYGQVKLQQLVYPTKLFYTFYLKGLANDLPLELTGTPVPPSKDIEPAPEAKALEPSGVISNYTN”, the protein production entry is on record as “failed”.

For the sequence “SQGDCSYSRTALYDLLGVPSTATQAQIKAAYYRQCFLYHPDRNSGSAEAAERFTRISQAYVVLGSATLRRKYDRGLLSDEDLRGPG”, the protein production result is on record as “not failed”.

As to “SQLISADGKVFGSYAHSGDNRIYTRYNEISPDLIKALIATEDVRFRKHSGIDSKGLFRAVVKRGILNQKSGGGGSTITQQLAKLLYSPRTETKLGRLFQKPIEWVIAVKLERFYTKEEIITMYLNYFDFLYNAVGIKSAAYTYFGKQPADLKIEEAAVLVGMCKNPAYYNPVLHG”, the protein production entry is on record as “failed”.

In the case of “SQYKNISEKIVHIIQQEFDTDLTLESIAGRLHYNPNYLSSIFRKEMKISFSEYLSSYRHHIAKNWLTETTMSVKEISEKLKYKNPQNFIRSFKKLEGITPGKYRELKNHS”, the protein production entry is recorded as “not failed”.

As for “SRFYEQHADCLAEQYTSLKFEDVHASWRAFWPQARDRVLDVGAGSGRDAKWMAEHGCEVIAIEPAQALLRFGKSYCGDSVTWLEDGLPKLEKTINLGFRFDLILVSAVWMHLAPTHRERAFRKLANLLAPNGRLVISLRHGDFSDGRKAYPVSVEELEKFAKNRALMVRNVS”, the protein production entry is reported as “failed”.

For “SRPLGEVYLDSSKPAVYNYPEGAAYEFNAAAAANAQVYGQTGLPYGPGSEAAAFGSNGLGGFPPLNSVSPSPLMLLHPPPQLSPFLQPHGQQVPYYLENEPSGYTVREAGPPAFYRPNSDNRRQG”, the protein production entry is reported as “not failed”.

“SSPIRLSTSNLPMTLTTNTSSGAPNKAFNTSSVNSGNSFSRTTTSSTTTTTERIEIRAEGDGEVDTDSIRKRITERLRRSVSKTISNLAGTPVTNTEEGSRYSRSVSRSVYDDEKSSKRSYSTGEEDIDEEDELEEDQFRSFNVTRKSATPAEISCRQLKAPREFGGWLGAFLFLLLLPTAVYYLTWSCTARNACQFKHLNLGILLDVNYLTRQVFQPRVVGAFAAYQVVVFLLVALLPGRRVHLTRETYKFNCLAVSLTLLIASGVAEYLKYPVVTFVLRHYLRFCIFGLVGAFVAAAW”: the protein production result is recorded as “failed”.

As to “SSPPSGCPMHEGKMKGCPVNTEPSGPTCEKKTYSVPAHQERAYEYVECPIRGTAAENKENLDPSNLMPPPNQTPAPDQPFALSTVREESSIPRADSEKKWVYPSEQMFWNAMLKKGWKWKDEDISQKDMYNIIRIHNQNNEQAWKEILKWEALHAAECPCGPSLIRFGGKAKEYSPRARIRSWMGYELPFDRHDWIINRCGTEVRYVIDYYDGGEVNKDYQFTILDVRPALDSLSAVWDRMKVAWWRWTS”, the protein production result is “failed”.

“SSQPVISAQEQETQIVLYGKLVEARQKHANKMDVPPAILATNKILVDMAKMRPTTVENVKRIDGVSEGKAAMLAPLWEVIKHFCQTNSVQTDLFSSTKPQ”: the protein production result is “not failed”.

Take “SSRRRRIVAAARDYVLAHRSRPVGVPELCEQLHVSRRTLQYCFQDVLGMAPATYLRALRLNGVRRDLRGRAADSVQDVAAAWGFWHLSQFATDYRRMFGARPSETLRGALA”: the protein production result is recorded as “failed”.

Consider “SSSKGISNALKDLVEDFERELGRMLSPFELEDLQKTVSDDKTDPDLVRSALREAVFNGKTNWNYIQAILRNWRHEGI”, for which the protein production entry is “failed”.

Turning to “STGNAGEWCLMESDPGVFTELIKGFGCRGAQVEEIWSLEPENFEKLKPVHGLIFLFKWQPGEEPAGSVVQDSRLDTIFFAKQVINNACATQAIVSVLLNCTHQDVHLGETLSEFKEFSQSFDAAMKGLALSNSDVIRQVHNSFARQQMFEFDTKTSAKEEDAFHFVSYVPVNGRLYELDGLREGPIDLGACNQDDWISAVRPVIEKRIQKYSEGEIRFNLMAIVSDRKMIYEQKIAELQRQLAEEPMDTDQGNSMLSAIQSEVAKNQMLIEEEVQKLKRYKIENIRRKHNYLPFIMELLKTLAEHQQLIPLVEKAKEKQNAKKAQETK”, the protein production entry is “not failed”.

For “STHKLIRQDNSELIYYLDKQAEHNKTLLVLMQGSDCNSIKNNTFIQETFGRWLPSSDVLMVEKYGITAQLTYSDDNGEREDCPKNYKLHDNPNQRLADYLAVLDKLSPNYTNIVLLGGSEGATMVHLVVAERHDISAAIALNGGGRFFLDDVLYNIRNTTPKEHVEEAINSFQQLANAIITNQIGDEQFVSEHSKLWWQQYLAIDLLEVIKRNTQTPVLIVQTLDDINVDVAAFHQLSQEITQPNVTFIKYDKLNHGFYNQQGERLTGKVVQDIQQWYAQYNK”, the protein production result is “not failed”.

For “STITYYRTDLFKQAGLSMPERPTWTQLGEFAAKLHQPDKGVYGMCLRGKAGWGENIALLSTMANAFGARWFDEHWKPELNSPEWANAANFYVNTLKNYGPPGVSSNGFNETLALFNSGKCALWVDASVAGSFTTDKEQSKVVDSVGFAPAPVEVTDKGSSWLYAWSLAIPATSRHKDAAKAFITWATSKAYIQLVAEKDGITNVPPGTRTSTYSEA”, the protein production entry is listed as “failed”.

In the case of “STMTVIKDYYALKENEICVSQSEVVQVLAVNQQNMCLVYQPASDHSPAAKGWVPGSILAPF”, the protein production entry is “not failed”.

“STQYMELNQRDEKSPFRNANLRKAISYSIDRKALVESILGDGSIEPNGLVPADMAKDPSGGKDFAKEAGSQIEYDTKKAKEYWEKAKKELGISTLTMDILSSDADSSKKTVEFVQGSIQDALDGVKVTVSPVPFSVRLDRSNKGDFDAVIGGWSADYADPSSFLDLFASDNSYNRGRYNNAEFDKFVKAASSADATDPEKRWDDMLNAEKTIMGDMGVVPLFQKS”: the protein production entry was “not failed”.

For “STRPVGGTEYSWCRAIDGGTGIAVIALLLSRTPKLQNLQNTLDKLQIYHPTLRSNIRFDASANSFSFVVTSAADSHVEIHPFDSVSTAQIIRDSDDPCADPHRIILEHEMNKNTWINPHRWIKSESRVFIVSLYDLTDDGEQRILTFRLNTAAVDRTAAVTLLREFMKETAADGFGNGPVVAATETAVGLGKAIEELIPSGKGDKPFWARGIDVLGYSLNAFRFSNLNFVDAENSNRRSQLVRLKLDRDQTLKLVAGCKARGLKLWAALASSALIAAYSSKNLPPYQGEKYAVVTLSDCRSILEPPLTSNDFGFYHAGILHTHDLTGEEKLWDLAKRCYDSFTSSKNSNKQFTDMSDLNFLMCKAIENPNLTPSSSLRTAFISIFEDPVIDESPEPELASLGVQDYIGCASIHGVGPSVAVFDALRDGKLDCAFVYPSPLHSREQMDGLIQHMKTILLEGSASSF”, the protein production result is on record as “not failed”.

Take “STSPTATKYDVFLSFRGVDTRRNFISFLYKEFVRRKIRTFKDDKELENGRRISPELKRAIEESKFAVVVVSVNYAASPWCLDELVKIMDFENKGSITVMPIFYGVDPCHLRRQIGDVAEQFKKHEAREEDHEKVASWRRALTSLASISGDCSSKCEDEAKLVDEIADKISKNLMTVTTISNGKNLVGIDTHMKALNKKLDLNSNKSLRVVGIWARGYNGRSALAKYVYQDICHHFDSHCFLGSVKRISQGRHLSHLHEEFLIRIQGSKHNLKDQKVLLVADDVYKLEQLDALAEDFNGFGPGSVVIITTQDKHLFVSAGIKLVYEVELLKFQKVCELFRQFAFKKRDISAAVKLVYYRATNWLGCLSGRSG”: the protein production entry is “failed”.

Take “STVKRKPVFVKVEQLKPGTTGHTLTVKVIEANIVVPVTRKTRPASSLSRPSQPSRIVECLIGDETGCILFTARNDQVDLMKPGATVILRNSRIDMFKGTMRLGVDKWGRIEATGAASFTVKEDNNLSLVEYE”: the protein production entry is “not failed”.

Take “SVDKNRTLHELSSKNFSRTPNGLIFTNDLKTVYSIFLICLDLKEKKHSSDTKSFLLTAFTKHFHFTFTYQEAIKAMGQLELKVDMNTTCINVSYNIKPSLARHLLTLFMSSKLLHTPQDRTRGEPKEKVLFQPTPKGVAVLQKYVRDIGLKTMPDILLSSFNSMKLFTFERSSVTDSIIHSDYLIHILFIKMMGAKPNVWSPTNADDPLPCLSSLLEYTNNDDTFTFEKSKPEQGWQAQIGNIDINDLERVSPLAHRFFTNPDSESHTQYYVSNAGIRLFENKTFGTSKKIVIKYTFTTKAIWQWIMDCTDIMHVKEAVSLAALFLKTGLIVPVLLQPSRTDKKKFQISRSSFFTLSKRGWDLVSWTGCKSNNIRAPNGSTIDLDFTLRGHMTVRDEKKTLDDSEGFSQDMLISSSNLNKLDYVLTDPGMRYLFRRHLEKELCVENLDVFIEIKRFLKKMTILKKLIDSKHCDKKSNTSTSKNNIVKTIDSALMKQANECLEMAYHIYSSYIMIGSPYQLNIHHNLRQNISDIMLHPHSPLSEHFPTNLYDPSPASAESAASSISSTEADTLGEPPEVSLKPSKNLSNENCSFKKQGFKHQLKEYKPAPLTLAETHSPNASVENSHTIVRYGMDNTQNDTKSVESFPATLKVLRKLYPLFEIVSNEMYRLMNNDSFQKFTQSDVYKDASALIEIQEKC”: the protein production result is reported as “failed”.

Turning to “SVMAEGTAVLRRNRPGTKAQDFYNWPDESFDEMDSTLAVQQYIQQNIRADCSNIDKILEPPEGQDEGVWKYEHLRQFCLELNGLAVKLQSECHPDTCTQMTATEQWIFLCAAHKTPKECPAIDYTRHTLDGAACLLNSNKYFPSRVSIKESSVAKLGSVCRRIYRIFSHAYFHHRQIFDEYENETFLCHRFTKFVMKYNLMSKDNLIVPILEEEVQNSVSGESEA”, the protein production entry is on record as “failed”.

Turning to “SVTIDHTTENAAPAQAPVSDRAWALFRALDGKGLVPDGYVEGWKKTFEEDFSPRRGAELVARAWTPRRGAELVARAWTDPEFRQLLLTDGTAAVAQYGYLGPQGEYIVAVEDTPTLKNVIVCSLCSCTAWPILGLPPTWYKSFEYRARVVREPRKVLSEMGTEIASDIEIRVYDTTAETRYMVLPQRPAGTEGWSQEQLQEIVTKDCLIGVAIPQVPTV”, the protein production entry was “not failed”.

Consider “SYETSQHNLDAVEAVLSRLQKQTGEMAAYMVPVGYRALCVSQRESMQALRCSFVQGQSQPLLRGASSKVMLAYMPAARCEKILRYFGEDPTLDKWQSEFEKIRRHGYAVSTSEIDPGVSGISAPVMKGSKLIGAISVMAPAHRVESNKQRIILHVLQAARALPPER”, for which the protein production result is reported as “not failed”.

Take “TARKCLLEKVEVITGEEAESNVLQMQCKLFVFDKTSQSWVERGRGLLRLNDMASTDDGTLQSRLVMRTQGSLRLILNTKLWAQMQIDKASEKSIHITAMDTEDQGVKVFLISASSKDTGQLYAALHHRILALRSRVE”: the protein production entry is “not failed”.
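Note: failed if final PepcDB status was selected cloned or expressed and not failed if soluble or beyond.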
